Experimental data from doi:10.1101/2024.02.23.581826 (bioRxiv, 2024).
Values joined by “and” are separate entries in the source; they are usually repeats but may differ in a detail not shown here. Identical values can stand only once. Like-named read-outs stand apart in the source and are kept apart here.

How the values were obtained:
Assay in all cases: SPR
[1] = target: T1, isolated CNBH domain of mouse EAG1 (mEAG1) channels, residues 552-708 (mouse, UniProt Q60603 552-708)
T1 sequence (looked up): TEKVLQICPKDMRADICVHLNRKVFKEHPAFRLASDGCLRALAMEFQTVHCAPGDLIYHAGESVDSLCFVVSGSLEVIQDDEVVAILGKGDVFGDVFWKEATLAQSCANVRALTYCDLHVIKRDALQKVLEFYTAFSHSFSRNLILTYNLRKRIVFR

[2] = target: T1, isolated CNBH domain of mouse EAG1 …; remark: listed apart in the source
[3] = target: T1, isolated CNBH domain of mouse EAG1 …; remark: listed apart in the source
[4] = target: T1, isolated CNBH domain of mouse EAG1 …; remark: listed apart in the source

Kd [1]: 900 nM and 500 nM
Kd [2]: 1800 nM
Kd [3]: 2500 nM and 2900 nM
Kd [4]: 1600 nM
B1: isolated PAS domain of mouse EAG1 (mEAG1) channels, residues 7-136 (domain or fragment, UniProt Q60603 7-136, looked up)
chain: RRGLVAPQNTFLENIVRRSNDTNFVLGNAQIVDWPIVYSNDGFCKLSGYHRAEVMQKSSACSFMYGELTDKDTVEKVRQTFENYEMNSFEILMYKKNRTPVWFFVKIAPIRNEQDKVVLFLCTFSDITAF
